Experimental data: article PMC3925188 (Biochimica et biophysica acta, 2013)

Molecular target: T1, Cyp33 RRM domain (1–83) (UniProt Q9UNP9 1-83)
T1 sequence (looked up): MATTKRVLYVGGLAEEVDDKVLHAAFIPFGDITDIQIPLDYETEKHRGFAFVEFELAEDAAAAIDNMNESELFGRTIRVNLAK
Test: NMR titration

binding result: binds
B1: KMT2A PHD3 finger (1565–1627) (domain or fragment, UniProt Q03164 1565-1627, looked up)
chain: KGNFCPLCDKCYDDDDYESKMMQCGKCDRWVHSKCENLSDEMYEILSNLPESVAYTCVNCTER
